Key:
[1] = target: 3×FLAG-tagged ArgD (N-acetylornithine aminotransferase) of Synechocystis sp. PCC 6803 (Synechocystis sp. PCC 6803) (UniProt P73133); experiment: co-IP; f.ArgD or f.AstC purified from the soluble fraction of Synechocystis strains (ΔargD or ΔcphB background; cells with nitrate, without or with 1 mM Orn for 24 h) on anti-FLAG M2 gel, eluted with 3xFLAG peptide; SDS-PAGE, stained, blotted and probed with anti-Gun4 and anti-CphB
[2] = target: 3×FLAG-tagged ArgD (N-acetylornithine aminotransferase) of Synechocystis sp. PCC 6803 (Synechocystis sp. PCC 6803) (UniProt P73133); experiment: co-IP; f.ArgD from Synechocystis cells grown with 18 mM nitrate without or with Orn (1 mM for 24 h; 100 μM for 1 h); proteins released from the anti-FLAG resin with 1% SDS instead of FLAG peptide; western blot; WT control
[3] = target: ArgD-6xHis, recombinant Synechocystis ArgD (Synechocystis sp. PCC 6803) (UniProt P73133); experiment: isothermal spectral shift assay; 5 nM labeled ArgD or 20 nM labeled Gun4 (Red NHS dye) titrated with a serial dilution of the unlabelled partner; 25 mM Tris, 0.1% Pluronic F-127, pH 8, 25°C; Monolith X; triplicate
[4] = target: Gun4-6xHis, recombinant Synechocystis Gun4 (Synechocystis sp. PCC 6803); experiment: as above
[5] = target: T1, ArgD-6xHis, recombinant Synechocystis ArgD (Synechocystis sp. PCC 6803, UniProt P73133 1-429, 2nd Generation Red NHS dye); experiment: as above; settings: both partners purified
T1 construct: N-acetylornithine aminotransferase ArgD, Synechocystis sp; PCC 6803, gene slr1022; the recombinant protein produced in E. coli is called full-length where the antibodies are described; Construct pET21a-argD; also called labeled ArgD; source: E. coli BL21 (DE3), pET21a, purified (Ni-NTA); not shown: His6, C-terminal, kept
T1 sequence (looked up): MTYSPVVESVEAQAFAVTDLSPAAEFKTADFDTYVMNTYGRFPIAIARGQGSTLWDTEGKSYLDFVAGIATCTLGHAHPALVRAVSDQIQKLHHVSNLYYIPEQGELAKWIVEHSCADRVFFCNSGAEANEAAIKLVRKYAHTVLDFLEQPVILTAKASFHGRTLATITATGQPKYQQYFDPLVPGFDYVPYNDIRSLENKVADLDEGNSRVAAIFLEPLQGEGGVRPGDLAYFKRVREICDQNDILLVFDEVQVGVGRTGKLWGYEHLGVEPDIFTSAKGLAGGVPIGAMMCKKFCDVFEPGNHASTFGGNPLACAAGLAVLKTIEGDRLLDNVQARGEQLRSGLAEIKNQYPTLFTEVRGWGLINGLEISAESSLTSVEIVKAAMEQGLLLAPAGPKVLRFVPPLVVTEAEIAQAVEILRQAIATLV

[6] = target: the molecule itself; experiment: native gel or EMSA; 2D blue native/SDS-PAGE of the f.ArgD anti-FLAG eluate; apparent mass on the BN gel

**Q.** Which results are given for “Gun4 protein of Synechocystis sp. PCC 6803 (native) (natural protein)”?
**A.** fold more Gun4 co-purified with f.ArgD (cells with 1 mM Orn for 24 h against cells without Orn) [1]: 6 times; fold enrichment of Gun4 in the f.ArgD pull-down (Orn-treated cells against control) [2]: > 12 ×; fold increase of f.ArgD-co-purified Gun4 (1 h feeding with 100 μM Orn against control) [2]: 6 times

**Q.** How did the Kd [3] turn out when “Gun4-6xHis, recombinant Synechocystis Gun4 (natural protein)” was run?
**A.** Its Kd is 55.8 nM.

B1: CphB-6xHis, recombinant Synechocystis CphB (enzyme, Synechocystis sp. PCC 6803, UniProt P73832 1-271, looked up)
chain: MPLSSQPAILIIGGAEDKVHGREILQTFWSRSGGNDAIIGIIPSASREPLLIGERYQTIFSDMGVKELKVLDIRDRAQGDDSGYRLFVEQCTGIFMTGGDQLRLCGLLADTPLMDRIRQRVHNGEISLAGTSAGAAVMGHHMIAGGSSGEWPNRALVDMAVGLGIVPEIVVDQHFHNRNRMARLLSAISTHPELLGLGIDEDTCAMFERDGSVKVIGQGTVSFVDARDMSYTNAALVGANAPLSLHNLRLNILVHGEVYHQVKQRAFPRVT
notes: cyanophycinase CphB, Synechocystis sp; PCC 6803, gene slr2001; the recombinant protein produced in E. coli is called full-length where the antibodies are described; Construct pET21a-cphB; source: E. coli BL21 (DE3), pET21a, purified (Ni-NTA); not shown: His6, C-terminal, kept
**Q.** With B1 as the molecule, how does the Kd [4] read?
**A.** Its Kd is 2160 nM.

**Q.** What about the Kd [5] of the same molecule?
**A.** The Kd was 29800 ± 960 nM.

B2: cyanophycinase CphB of Synechocystis sp. PCC 6803 (native) (enzyme, UniProt P73832 1-271, looked up)
chain: B1 chain
notes: cyanophycinase CphB, Synechocystis sp; PCC 6803, gene slr2001; printed as 29.4 kDa; Migrated like a large oligomer (>200 kDa) on the BN gel; source: endogenous, Synechocystis soluble fraction
**Q.** Does B2 bind [6]?
**A.** Result: binds

B3: 3×FLAG-tagged ArgD (N-acetylornithine aminotransferase) of Synechocystis sp. PCC 6803 (enzyme, UniProt P73133 1-429, looked up)
chain: T1 sequence (looked up)
notes: N-acetylornithine aminotransferase ArgD, Synechocystis sp; PCC 6803, gene slr1022; synthetic argD gene with optimised codon usage cloned into pPD-NFLAG; f.ArgD printed as 49.8 kDa; also called f.ArgD; source: Synechocystis f.argD+/ΔargD or f.argD+/ΔcphB strain (psbAII promoter), soluble fraction; not shown: 3xFLAG, N-terminal, kept
**Q.** With B3 as the molecule, how does the “stoichiometry N” value [6] read?
**A.** Its value is 2.

— publication PMC10783636, “Chlorophyll biosynthesis under the control of arginine metabolism” (Cell Reports, 2023)
